Experimental findings from publication PMC2705212 (Journal of molecular biology, 2008) are described below.

To fix the notation:
B1: BMPRII-Fc chimera (soluble extracellular domain of BMP receptor II) (Fc fusion, human, UniProt Q13873 27-150, looked up)
chain: SQNQERLCAFKDPYQQDLGIGESRISHENGTILCSKGSTCYGLWEKSKGDINLVKQGCWSHIGDPQECHYEECVVTTTPPSIQNGTYRFCCCSTDLCNVNFTENFPPPDTTPLSPPHSFNRDET
B2: BMP-7 growth factor dimer (ligand, human, UniProt P18075 293-431, looked up)
chain: STGSKQRSQNRSKTPKNQEALRMANVAENSSSDQRQACKKHELYVSFRDLGWQDWIIAPEGYAAYYCEGECAFPLNSYMNATNHAIVQTLVHFINPETVPKPCCAPTQLNAISVLYFDDSSNVILKKYRNMVVRACGCH

In test [1] the target is BMP-7 prodomain-growth factor complex (UniProt P18075). As to the kind of experiment: SPR. (SPR reads the build-up and loss of mass on a sensor chip optically.)
A further test has as its target BMP-7 prodomain. As to the kind of experiment: SPR.
The target of test [2] is ActRIIA-Fc chimera (soluble extracellular domain of activin receptor IIA) (human) (UniProt P27037). In words: SPR.
For test [3], the target named is BMPRII-Fc chimera (soluble extracellular domain of BMP receptor II) (human) (UniProt Q13873). As to the kind of experiment: SPR.
The target of test [4] is B2. In words: SPR.
Test [5] has as its target B1. In words: AUC.

ActRIIA-Fc chimera (soluble extracellular domain of activin receptor IIA) (human), sequence (P27037 20-135, change not shown): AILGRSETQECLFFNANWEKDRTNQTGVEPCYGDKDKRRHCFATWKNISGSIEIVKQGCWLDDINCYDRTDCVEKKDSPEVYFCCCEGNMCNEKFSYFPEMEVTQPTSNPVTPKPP

On to “ActRIIA-Fc chimera (soluble extracellular domain of activin receptor IIA) (from UniProt P27037 20-135) (Fc fusion)”, for which the reduction of the response against immobilized BMP-7 gfd in test [1] amounted to 90%.

The koff is a measure of how fast the partners let go of each other. High values mean a short-lived complex, low ones a long-lived complex. Broadly, the kon is a measure of how fast the partners come together. For the molecule “BMP-7 growth factor dimer (from UniProt P18075 293-431) (ligand)”, in the test with BMP-7 prodomain, the koff was found to be 0.00209 s⁻¹ and the kon turned out to be 98700 M⁻¹ s⁻¹.

With “BMP-7 prodomain-growth factor complex (from UniProt P18075 293-431)”, in test [2], the koff turned out to be 0.00352 s⁻¹ and the kon was found to be 265000 M⁻¹ s⁻¹. Moreover, in test [3], the dissociation rate constant (koff) was found to be 0.00213 s⁻¹ and the kon came out at 216000 M⁻¹ s⁻¹.

In test [1], B1 displayed a reduction of the response against immobilized BMP-7 gfd of 90%. Moreover, in test [4], the koff was 0.00298 s⁻¹ and the on-rate (kon) was 625000 M⁻¹ s⁻¹.

As usually defined, the stoichiometry N is the number of molecules, sites or subunits per partner or assembly. B2: the “stoichiometry N” value in test [5] worked out at 2 gfd per BMPRII-Fc dimer.
